Measured values reported in patent publication US20150239950A1 (SALK INSTITUTE FOR BIOLOGICAL STUDIES, published 2015).
Changes are numbered by the printed parent chain. Like-named read-outs stand apart in the source and are kept apart here.

T1: BMP6 homodimer (mature domain of human BMP6, residues 1-132) (human, UniProt P22004 382-513)
T1 sequence: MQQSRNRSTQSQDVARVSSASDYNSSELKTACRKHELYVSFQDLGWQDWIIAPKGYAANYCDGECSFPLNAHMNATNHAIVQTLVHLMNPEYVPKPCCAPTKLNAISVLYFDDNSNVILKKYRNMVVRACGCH

B1: AB2-008 (1b2a3a4a5a6a activin/BMP-2 chimera) (ligand)
chain: MQAKHKQRKRLKSSCKRHPLYVDFSDVGWNDWIIAPSGYHANYCEGECPSHIAGTSGSSLSFHSTLVNHYRMRGHSPFANLKSCCVPTKLRPMSMLYYDDGQNIIKKDIQNMIVEECGCS
notes: The entry includes the initiator Met
B2: AB2-015 (1b2a3b4b5b6a activin/BMP-2 chimera) (ligand)
chain: MQAKHKQRKRLKSSCKRHPLYVDFSDVGWNDWIIAPSGYHANYCDGECPFPLADHLNSTNHAIVQTLVNSVNSKIPKACCVPTELSAISMLYYDDGQNIIKKDIQNMIVEECGCS
B3: AB2-012 (1b2b3b4b5b6a activin/BMP-2 chimera) (ligand)
chain: B2 chain with I34V, S37P, N42F, D45H, Q97R
B4: AB2-004 (1b2a3b4b5a6a activin/BMP-2 chimera) (ligand)
chain: B2 chain with E84K, S86R, A87P, I88M
B5: BMPRIa-ECD (extracellular domain of human BMPRIa, residues 1-129) (receptor, UniProt P36894 24-152, looked up)
chain: QNLDSMLHGTGMKSDSDQKKSENGVTLAPEDTLPFLKCYCSGHCPDDAINNTCITNGHCFAIIEEDDQGETTLASGCMKYEGSDFQCKDSPKAQLRRTIECCRTNLCNQYLQPTLPPVVIGPFFDGSIR
notes: extracellular domain; also called type I receptor ECD
B6: ActRIIb-ECD (extracellular domain of mouse ActRIIb, residues 1-98) (receptor, UniProt P27040 19-137, looked up)
chain: SGRGEAETRECIYYNANWELERTNQSGLERCEGEQDKRLHCYASWRNSSGTIELVKKGCWLDDFNCYDRQECVATEENPQVYFCCCEGNFCNERFTHLPEPGGPEVTYEPPPTAPTLLT
notes: extracellular domain; also called type II receptor ECD
B7: Activin-βA (ligand)
chain: GLECDGKVNICCKKQFFVSFKDIGWNDWIIAPSGYHANYCEGECPSHIAGTSGSSLSFHSTVINHYRMRGHSPFANLKSCCVPTKLRPMSMLYYDDGQNIIKKDIQNMIVEECGCS
notes: also called Activin-A
B8: AB2-011 (1b2b3b4b5a6a activin/BMP-2 chimera) (ligand)
chain: MQAKHQQRKRLKSSCKRHPLYVDFSDVGWNDWIVAPPGYHAFYCHGECPFPLADHLNSTNHAIVQTLVNSVNSKIPKACCVPTKLRPSMLYYDDGQNIIKKDIQNMIVEECGCS
B9: BMP2/BMP6 heterodimer (ligand)
chain 1: QAKHKQRKRLKSSCKRHPLYVDFSDVGWNDWIVAPPGYHAFYCHGECPFPLADHLNSTNHAIVQTLVNSVNSKIPKACCVPTELSAISMLYLDENEKVVLKNYQDMVVEGCGCR
chain 2: T1 sequence
notes: also called B2/B6
B10: BMP2 homodimer (mature domain of human BMP2) (ligand)
chain: B9 chain 1
notes: also called BMP-2wt; BMP-2ma

Experiments:
[1] = biological target: T2, ActRII-ECD (extracellular domain of mouse ActRII, residues 1-102) (mouse, UniProt P27038 20-135); assay: SPR (BIAcore), receptor ECD immobilized
T2 construct: extracellular domain; also called type II receptor ECD
T2 sequence (P27038 20-135): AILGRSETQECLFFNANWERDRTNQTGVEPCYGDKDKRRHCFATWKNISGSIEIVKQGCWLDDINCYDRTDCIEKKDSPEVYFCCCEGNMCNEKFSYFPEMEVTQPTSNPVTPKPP

[2] = biological target: T2, ActRII-ECD (extracellular domain of …); assay: SPR (BIAcore), receptor ECD immobilized, ligand flowed; 1:1 Langmuir with mass transfer; single trial
Experimental: (§1) The receptors were immobilized to the chip surface with the ligands flowed over the surface. The data were fit to a kinetic model (1:1 Langmuir binding with mass transfer) in which KD is calculated as koff/kₒₙ. The table reports data from a single trial.

[3] = biological target: B5; assay: SPR (BIAcore), receptor ECD immobilized, ligand flowed; 'No Binding indicates that the interaction was not detectable'
Experimental: as §1

[4] = biological target: T2, ActRII-ECD (extracellular domain of …); assay: SPR (BIAcore), receptor ECD immobilized, ligand flowed; KD = koff/kon; single trial
Experimental: as §1

[5] = biological target: T2, ActRII-ECD (extracellular domain of …); assay: SPR (BIAcore), receptor ECD immobilized, ligand flowed; 1:1 Langmuir with mass transfer; single trial; remark: listed apart in the source
Experimental: as §1

[6] = biological target: T2, ActRII-ECD (extracellular domain of …); assay: SPR (BIAcore), receptor ECD immobilized, ligand flowed; KD = koff/kon; single trial; remark: listed apart in the source
Experimental: as §1

[7] = biological target: T1, BMP6 homodimer (mature domain of human …); assay: SPR, receptor binding affinity
[8] = biological target: T1, BMP6 homodimer (mature domain of human …); assay: SPR (BIAcore), receptor ECD immobilized, ligand flowed; KD = koff/kon
Experimental: (§2) The affinity of the ligands to BMPRIa, ActRII, and ActRIIb was monitored by using a Biacore 3000 (GE Healthcare) and the data were analyzed by using BlAevaluation software ver. 4.1 (GE Healthcare). Using primary amine coupling, receptor ECDs were immobilized on a CM5 chip. The receptors were immobilized independently on flow cells 2-4 for 10 minutes at a flow rate of 5 μL/min and a concentration of 20 μM in 10 mM Na acetate, pH 4.0. Flow cell 1 was left blank, no immobilized protein, as a negative control. […] A minimum of five concentrations, plus a zero concentration, were run per sample for kinetic analysis and the data were fit by using a global 1:1 Langmuir binding with mass transfer.
(§3) Ligand affinity data from BIAcore experiments. The BIAcore data is shown as the dissociation rate, koff, and the association rate, kₒₙ, based on a global fit using the kinetic model 1:1 Langmuir binding with mass transfer. The binding constant KD is calculated as koff/kₒₙ. The receptors were immobilized to the chip surface, with the ligands flowed over the surface.

[9] = biological target: T1, BMP6 homodimer (mature domain of human …); assay: SPR (BIAcore), receptor ECD immobilized, ligand flowed; 1:1 Langmuir with mass transfer
Experimental: as §2, §3

BMP2/BMP6 heterodimer [10] = biological target: B9; assay: SPR, receptor binding affinity
BMP2/BMP6 heterodimer [11] = biological target: B9; assay: SPR (BIAcore), receptor ECD immobilized, ligand flowed; KD = koff/kon
Experimental: as §2, §3

[12] = biological target: Cripto (mouse Cripto construct transfected into HEK293T cells) (mouse) (UniProt P51865); assay: cell-based or functional assay
Sequence of Cripto (mouse Cripto construct transfected into HEK293T cells) (mouse) (P51865 18-134): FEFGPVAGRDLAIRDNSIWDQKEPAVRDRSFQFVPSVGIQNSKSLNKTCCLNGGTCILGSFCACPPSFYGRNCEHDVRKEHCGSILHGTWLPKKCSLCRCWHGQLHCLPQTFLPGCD

[13] = biological target: T2, ActRII-ECD (extracellular domain of …); assay: native-PAGE receptor ECD saturation assay, 5 µg ActRII-ECD with 10 µg ligand, Coomassie densitometry
[14] = biological target: B6; assay: SPR, receptor binding affinity
[15] = biological target: B6; assay: SPR (BIAcore), receptor ECD immobilized, ligand flowed; KD = koff/kon
Experimental: as §2, §3

Binder: B1
fold weaker affinity against activin-βA [1]: ~1.7 fold
koff [2]: 0.000824 s⁻¹
kon [2]: 2.39e+06 M⁻¹ s⁻¹
binding result [3]: no binding
Kd [4]: 0.344 nM

Binder: B2
fold higher binding against BMP-2 [1]: ~100 fold
koff [5]: 0.000371 s⁻¹
kon [5]: 1.61e+06 M⁻¹ s⁻¹
Kd [6]: 0.23 nM
binding result [3]: no binding

Binder: B3
koff [5]: 0.0016 s⁻¹
kon [5]: 3.39e+06 M⁻¹ s⁻¹
Kd [6]: 0.472 nM

Binder: B4
koff [5]: 0.000187 s⁻¹
kon [5]: 491000 M⁻¹ s⁻¹
Kd [6]: 0.381 nM

Binder: B5
Kd [7]: 62.8 nM
Kd [8]: 62.8 nM

Binder: B6
koff [9]: 0.00182 s⁻¹
kon [9]: 273000 M⁻¹ s⁻¹
Kd (BMP2/BMP6 heterodimer [10]): 6.52 nM
koff (BMP2/BMP6 heterodimer [10]): 0.00861 s⁻¹
kon (BMP2/BMP6 heterodimer [10]): 1.32e+06 M⁻¹ s⁻¹
Kd [7]: 6.68 nM
koff [7]: 0.00182 s⁻¹
kon [7]: 273000 M⁻¹ s⁻¹
Kd (BMP2/BMP6 heterodimer [11]): 6.52 nM
Kd [8]: 6.68 nM

Binder: B7
koff [5]: 0.000716 s⁻¹
kon [5]: 3.52e+06 M⁻¹ s⁻¹
koff [2]: 0.000716 s⁻¹
kon [2]: 3.52e+06 M⁻¹ s⁻¹
Kd [6]: 0.203 nM
decrease in Smad-2/3 luciferase signaling in HEK293T cells in the presence of Cripto [12]: 43%
binding result [3]: no binding
Kd [4]: 0.203 nM

Binder: B8
koff [5]: 0.000339 s⁻¹
kon [5]: 646000 M⁻¹ s⁻¹
Kd [6]: 0.525 nM

Binder: B9
fold decrease of the free type II receptor ECD band intensity against receptor ECD alone [13]: 9 fold

Binder: B10
Kd [14]: 38.5 nM
Kd [6]: 36.8 nM
Kd [15]: 38.5 nM
